Experimental findings from patent EP1876240B1 are described below.

For experiment [1], the target named is human GPVI extracellular region-human Fc fusion protein (hGPVI-hFc) (human). The experiment is described as follows: ELISA on immobilized antigen; control. (In an ELISA, binding on a coated surface is turned into a signal by an enzyme label.)
For experiment [2], the target named is rat GPVI-human Fc (rGPVI-hFc) (rat; mouse). The experiment is described as follows: ELISA on immobilized antigen; control.

human GPVI extracellular region-human Fc fusion protein (hGPVI-hFc) (human), sequence (chain, as listed by the source limits assumed, form in doubt): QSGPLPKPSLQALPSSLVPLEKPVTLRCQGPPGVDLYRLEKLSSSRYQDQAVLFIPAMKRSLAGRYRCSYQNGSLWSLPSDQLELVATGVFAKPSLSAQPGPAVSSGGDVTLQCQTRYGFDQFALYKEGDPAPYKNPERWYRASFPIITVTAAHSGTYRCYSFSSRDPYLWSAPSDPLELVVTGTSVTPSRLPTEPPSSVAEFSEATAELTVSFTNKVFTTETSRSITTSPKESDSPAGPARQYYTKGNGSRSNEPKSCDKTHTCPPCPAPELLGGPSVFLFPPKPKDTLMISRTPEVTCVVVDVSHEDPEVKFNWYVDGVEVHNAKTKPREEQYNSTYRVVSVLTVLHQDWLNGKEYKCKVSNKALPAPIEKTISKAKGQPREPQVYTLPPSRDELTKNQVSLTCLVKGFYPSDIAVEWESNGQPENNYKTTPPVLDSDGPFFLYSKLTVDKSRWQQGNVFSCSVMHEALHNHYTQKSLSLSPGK

With Normal Mouse IgG (antibody), the absorbance (ELISA) in experiment [1] came to 0.026; in experiment [2], 0.123.
